# Reference: US20200024322A1 (Eli Lilly, published 2020)
# Numbered stars: 1 amine (or outer) side, 2 acyl side, 3 side chain; on linkers, the order of the positions; unused ones are H or OH. Square brackets hold non-standard residues; d marks the D form. Side chains are listed from the residue outwards. Ends that are not written are not given here. * marks the point of attachment. C18 diacid = O=C(O)CCCCCCCCCCCCCCCCC(=O)*; γGlu = O=C(O)[C@H](CCC(=O)[*:2])N[*:1]; AEEA = NCCOCCOCC(=O)O; Aib = CC(C)(N)C(=O)O
# B1: Example 265 (peptide)
# peptide: YXEGTXTSDXSIXLDXKAQXEFIXXLIEGG
# modifications: Aib2; αMeF(2F)6; 4Pal10; αMeL13; Orn16; K17((2-[2-(2-Amino-ethoxy)-ethoxy]-acetyl)2-(γ-Glu)-CO-(CH2)16-CO2H); Aib20; D-Glu24; αMeY25; C-terminal NH2
# B2: Example 254 (peptide)
# peptide: YXEGTFTSDYSILLDKKAQQAFIEYLIEGGPSSGAPPPS
# modifications: Aib2; K17((2-[2-(2-Amino-ethoxy)-ethoxy]-acetyl)2-(γ-Glu)-CO-(CH2)18-CO2H); C-terminal NH2
# B3: Example 315 (peptide)
# peptide: YXEGTFTSDYSILLDKKAQXAFIEYLIEGGPSSGAPPPS
# modifications: Aib2; K17((2-[2-(2-Amino-ethoxy)-ethoxy]-acetyl)2-(γ-Glu)-CO-(CH2)16-CO2H); Aib20; C-terminal NH2
# B4: Example 255 (peptide)
# peptide: YXEGTFTSDYSILLDKKAQHAFIEYLIEGGPSSGAPPPS
# modifications: Aib2; K17((2-[2-(2-Amino-ethoxy)-ethoxy]-acetyl)2-(γ-Glu)-CO-(CH2)18-CO2H); C-terminal NH2
# B5: Example 266 (peptide)
# peptide: Y[Aib]EGTFTSDYSILLDKK([AEEA-AEEA-γGlu-C18 diacid])AQ[Aib]AFIEYLIEGGPSSG-NH2
# modifications: N-terminus assumed
# SMILES: CC[C@H](C)[C@H](NC(=O)[C@H](CC(C)C)NC(=O)[C@H](Cc1ccc(O)cc1)NC(=O)[C@H](CCC(=O)O)NC(=O)[C@@H](NC(=O)[C@H](Cc1ccccc1)NC(=O)[C@H](C)NC(=O)C(C)(C)NC(=O)[C@H](CCC(N)=O)NC(=O)[C@H](C)NC(=O)[C@H](CCCCNC(=O)COCCOCCNC(=O)COCCOCCNC(=O)CC[C@H](NC(=O)CCCCCCCCCCCCCCCCC(=O)O)C(=O)O)NC(=O)[C@H](CCCCN)NC(=O)[C@H](CC(=O)O)NC(=O)[C@H](CC(C)C)NC(=O)[C@H](CC(C)C)NC(=O)[C@@H](NC(=O)[C@H](CO)NC(=O)[C@H](Cc1ccc(O)cc1)NC(=O)[C@H](CC(=O)O)NC(=O)[C@H](CO)NC(=O)[C@@H](NC(=O)[C@H](Cc1ccccc1)NC(=O)[C@@H](NC(=O)CNC(=O)[C@H](CCC(=O)O)NC(=O)C(C)(C)NC(=O)[C@@H](N)Cc1ccc(O)cc1)[C@@H](C)O)[C@@H](C)O)[C@@H](C)CC)[C@@H](C)CC)C(=O)N[C@@H](CCC(=O)O)C(=O)NCC(=O)NCC(=O)N1CCC[C@H]1C(=O)N[C@@H](CO)C(=O)N[C@@H](CO)C(=O)NCC(N)=O
# B6: Example 219 (peptide)
# peptide: YXEGTXTSDYSIXLDEKAQXEFIXYLIEGGPSSG
# modifications: Aib2; αMeF(2F)6; αMeL13; K17((2-[2-(2-Amino-ethoxy)-ethoxy]-acetyl)2-(γ-Glu)-CO-(CH2)16-CO2H); Aib20; D-Glu24; C-terminal NH2
# B7: Example 264 (peptide)
# peptide: YXEGTXTSDXSIXLDXKAQXEFIXXLIEGGPSSG
# modifications: Aib2; αMeF(2F)6; 4Pal10; αMeL13; Orn16; K17((2-[2-(2-Amino-ethoxy)-ethoxy]-acetyl)2-(γ-Glu)-CO-(CH2)16-CO2H); Aib20; D-Glu24; αMeY25; C-terminal NH2
# B8: Example 228 (peptide)
# peptide: YXEGTXTSDYSIXLDKKAQXEFIXYLIEGGPSSG
# modifications: Aib2; αMeF6; αMeL13; K17((2-[2-(2-Amino-ethoxy)-ethoxy]-acetyl)2-(γ-Glu)-CO-(CH2)18-CO2H); Aib20; D-Glu24; C-terminal NH2
# B9: Example 220 (peptide)
# peptide: YXEGTXTSDYSIXLDEKAQXEFIXYLIEGG
# modifications: Aib2; αMeF(2F)6; αMeL13; K17((2-[2-(2-Amino-ethoxy)-ethoxy]-acetyl)2-(γ-Glu)-CO-(CH2)16-CO2H); Aib20; D-Glu24; C-terminal NH2
# B10: Example 213 (peptide)
# peptide: YXEGTXTSDYSIXLDEKAQXEFIXYLIEGGPSSGAPPPS
# modifications: Aib2; αMeF6; αMeL13; K17((2-[2-(2-Amino-ethoxy)-ethoxy]-acetyl)2-(γ-Glu)-CO-(CH2)16-CO2H); Aib20; D-Glu24; C-terminal NH2
# B11: Example 225 (peptide)
# peptide: YXEGTXTSDYSIXLDEKAQXEFIXYLIEGGPSSGAPPPS
# modifications: Aib2; αMeF6; Aib13; K17((2-[2-(2-Amino-ethoxy)-ethoxy]-acetyl)2-(γ-Glu)-CO-(CH2)18-CO2H); Aib20; D-Glu24; C-terminal NH2
# B12: Example 214 (peptide)
# peptide: YXEGTXTSDYSIXLDEKAQXEFIXYLIEGGPSSGAPPPS
# modifications: Aib2; αMeF(2F)6; αMeL13; K17((2-[2-(2-Amino-ethoxy)-ethoxy]-acetyl)2-CO-(CH2)16-CO2H); Aib20; D-Glu24; C-terminal NH2
# B13: Example 216 (peptide)
# peptide: YXEGTXTSDYSIXLDEKAQXEFIXYLIEGGPSSGAPPPS
# modifications: Aib2; αMeF(2F)6; αMeL13; K17((2-[2-(2-Amino-ethoxy)-ethoxy]-acetyl)2-(εK)-CO-(CH2)18-CO2H); Aib20; D-Glu24; C-terminal NH2
# B14: Example 217 (peptide)
# peptide: YXEGTXTSDYSIXLDXKAQXEFIXYLIEGGPSSGAPPPS
# modifications: Aib2; αMeF(2F)6; αMeL13; Dab16; K17((2-[2-(2-Amino-ethoxy)-ethoxy]-acetyl)2-(γ-Glu)-CO-(CH2)18-CO2H); Aib20; D-Glu24; C-terminal NH2
# B15: Example 250 (peptide)
# peptide: YXEGTXTSDYSIXLDXKAQXEFIXYLIEGGPSSGAPPPS
# modifications: Aib2; αMeF(2F)6; Aib13; Orn16; K17((2-[2-(2-Amino-ethoxy)-ethoxy]-acetyl)2-(γ-Glu)-CO-(CH2)18-CO2H); Aib20; D-Glu24; C-terminal NH2
# B16: Example 215 (peptide)
# peptide: YXEGTXTSDYSIXLDEKAQXEFIXYLIEGGPSSGAPPPS
# modifications: Aib2; αMeF(2F)6; αMeL13; K17((2-[2-(2-Amino-ethoxy)-ethoxy]-acetyl)2-CO-(CH2)18-CO2H); Aib20; D-Glu24; C-terminal NH2
# B17: Example 238 (peptide)
# peptide: YXEGTXTSDLSIXLDXKAQXEFIXXLIEGGPSSGAPPPS
# modifications: Aib2; αMeF(2F)6; αMeL13; Orn16; K17((2-[2-(2-Amino-ethoxy)-ethoxy]-acetyl)2-(γ-Glu)-CO-(CH2)16-CO2H); Aib20; D-Glu24; αMeY25; C-terminal NH2
# B18: Example 218 (peptide)
# peptide: YXEGTXTSDYSIXLDXKAQXEFIXYLIEGGPSSGAPPPS
# modifications: Aib2; αMeF(2F)6; αMeL13; Dap16; K17((2-[2-(2-Amino-ethoxy)-ethoxy]-acetyl)2-(γ-Glu)-CO-(CH2)18-CO2H); Aib20; D-Glu24; C-terminal NH2
# Experiments:
# human GIP receptor = target: T1, human GIP receptor (human, UniProt P48546 22-466); assay: [125I]-GIP competition SPA, hGIPR membranes
# T1 construct: whole, on cells; also called hGIPR; hGIP-R
# T1 sequence (looked up): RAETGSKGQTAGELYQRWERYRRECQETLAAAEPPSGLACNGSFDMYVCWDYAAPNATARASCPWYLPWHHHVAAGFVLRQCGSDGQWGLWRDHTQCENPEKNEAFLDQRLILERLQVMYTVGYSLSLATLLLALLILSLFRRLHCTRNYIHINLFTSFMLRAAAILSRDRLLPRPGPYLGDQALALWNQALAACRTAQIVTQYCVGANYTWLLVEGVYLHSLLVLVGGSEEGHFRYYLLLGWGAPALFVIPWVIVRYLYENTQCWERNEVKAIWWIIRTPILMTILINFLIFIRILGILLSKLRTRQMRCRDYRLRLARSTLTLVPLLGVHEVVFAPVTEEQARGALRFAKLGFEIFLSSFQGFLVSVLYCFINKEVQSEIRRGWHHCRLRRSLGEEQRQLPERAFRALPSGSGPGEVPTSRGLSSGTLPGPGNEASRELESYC
# human glucagon receptor = target: T2, human glucagon receptor (human, UniProt P47871 26-477); assay: [125I]-Gcg competition SPA, hGcgR membranes
# T2 construct: whole, on cells; also called hGcgR; GcgR
# human GLP-1 receptor = target: T3, human GLP-1 receptor (human, UniProt P43220 24-463); assay: [125I]-GLP-1 competition SPA, hGLP-1R membranes
# T3 construct: whole, on cells; also called hGLP-1R; hGLP1R
# How it was run: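 Kᵢ values are geometric means (SEM) over replicates run on separate days, derived from IC₅₀ of four-parameter curve fits. Buffer: HEPES 25 mM pH 7.4 with CaCl₂ 2.5 mM, MgCl₂ 1 mM, bacitracin 0.1%, TWEEN-20 0.003%, EDTA-free protease inhibitors.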
# T2 sequence (P47871 26-477): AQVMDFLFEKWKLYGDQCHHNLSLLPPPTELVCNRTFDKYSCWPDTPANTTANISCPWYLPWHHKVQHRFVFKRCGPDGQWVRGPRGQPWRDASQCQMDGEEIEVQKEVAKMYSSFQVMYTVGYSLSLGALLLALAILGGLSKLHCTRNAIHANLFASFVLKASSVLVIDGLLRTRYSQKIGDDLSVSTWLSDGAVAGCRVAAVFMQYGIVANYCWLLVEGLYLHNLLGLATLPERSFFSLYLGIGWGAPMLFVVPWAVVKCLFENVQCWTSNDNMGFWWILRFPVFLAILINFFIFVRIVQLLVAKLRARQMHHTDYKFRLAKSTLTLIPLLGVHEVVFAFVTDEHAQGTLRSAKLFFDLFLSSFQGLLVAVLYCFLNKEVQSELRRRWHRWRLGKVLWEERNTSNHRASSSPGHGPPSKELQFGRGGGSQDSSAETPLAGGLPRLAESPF
Binder,Ki (human GIP receptor) [nM],Ki (human glucagon receptor) [nM],Ki (human GLP-1 receptor) [nM]
B1,0.0224,567,0.537
B2,0.108,148,2.58
B3,0.0677,539,–
B4,0.0772,257,2.58
B5,0.0666,193,2.01
B6,0.0689,373,2.01
B7,0.015,388,0.412
B8,0.028,182,2.43
B9,0.0919,377,2.71
B10,0.365,544,2.75
B11,0.0622,714,8.79
B12,0.0304,126,1.99
B13,0.0559,45.2,2.34
B14,0.0376,516,2.02
B15,0.0171,198,1.72
B16,0.0666,75.2,6.85
B17,0.0403,230,0.548
B18,0.0593,270,2.54
